One series addresses GST-A1-50B (human) (UniProt P54274+Q15554). Put plainly: EMSA. The settings on record: RNA EMSA: 50 mM HEPES pH 8, 1 mM DTT, 100 mM NaCl, 0.01% BSA, 2% glycerol, 50 ng/uL E. coli tRNA, 0.25 nM RNA, 20 min on ice then 10 min 25 C; dsDNA EMSA: same ….
The next series deals with GST-AP2EAB (human) (UniProt P54274+Q15554). Description: EMSA. The settings on record: RNA EMSA: 50 mM HEPES pH 8, 1 mM DTT, 100 mM NaCl, 0.01% BSA, 2% glycerol, 50 ng/uL E. coli tRNA, 0.25 nM RNA, 20 min on ice then 10 min 25 C; dsDNA EMSA: same …. A general note: A gel shift assay detects complexes by their altered migration in electrophoresis.
For a further series, the target named is GST-TRF1ΔA (human, UniProt P54274 67-439, del1-66). Put plainly: EMSA; E. coli tRNA; RNA EMSA: 50 mM HEPES pH 8, 1 mM DTT, 100 mM NaCl, 0.01% BSA, 2% glycerol, 50 ng/uL E. coli tRNA, 0.25 nM RNA, 20 min on ice then 10 min 25 C; dsDNA EMSA: same. The settings on record: protein: recombinant, tags: N-terminal GST, chain copies: 2, label: 5'-32P.
For the next series, the target named is GST-TRF2ΔB (human, UniProt Q15554 87-542, del43-86). The description is as above. The conditions noted are these: protein: recombinant, tags: N-terminal GST, chain copies: 2, label: 5'-32P.
Another series has as its target T1, GST-B R13-30A (human, UniProt Q15554 43-86, R55A;R59A;R60A;R63A;R67A;R69A;R70A;R72A).
T1 chain: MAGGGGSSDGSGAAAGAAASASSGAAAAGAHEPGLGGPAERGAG
The description is as above. The conditions noted are these: protein: recombinant; tags: N-terminal GST; label: 5'-32P; G4-forming.

GST-TRF2ΔB, sequence (Q15554 87-542, stated change not applied): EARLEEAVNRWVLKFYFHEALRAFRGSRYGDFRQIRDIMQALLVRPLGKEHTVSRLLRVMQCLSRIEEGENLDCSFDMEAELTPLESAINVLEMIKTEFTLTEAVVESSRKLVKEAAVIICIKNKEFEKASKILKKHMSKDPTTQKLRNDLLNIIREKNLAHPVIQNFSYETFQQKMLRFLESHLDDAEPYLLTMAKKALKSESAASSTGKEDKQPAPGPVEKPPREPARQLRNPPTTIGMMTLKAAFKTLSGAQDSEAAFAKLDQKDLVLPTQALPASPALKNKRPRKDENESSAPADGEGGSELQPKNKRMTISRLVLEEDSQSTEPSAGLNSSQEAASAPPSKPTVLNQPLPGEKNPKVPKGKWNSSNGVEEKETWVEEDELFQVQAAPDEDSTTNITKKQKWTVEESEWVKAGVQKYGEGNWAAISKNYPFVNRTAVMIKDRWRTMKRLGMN
GST-TRF1ΔA, sequence (P54274 67-439, stated change not applied): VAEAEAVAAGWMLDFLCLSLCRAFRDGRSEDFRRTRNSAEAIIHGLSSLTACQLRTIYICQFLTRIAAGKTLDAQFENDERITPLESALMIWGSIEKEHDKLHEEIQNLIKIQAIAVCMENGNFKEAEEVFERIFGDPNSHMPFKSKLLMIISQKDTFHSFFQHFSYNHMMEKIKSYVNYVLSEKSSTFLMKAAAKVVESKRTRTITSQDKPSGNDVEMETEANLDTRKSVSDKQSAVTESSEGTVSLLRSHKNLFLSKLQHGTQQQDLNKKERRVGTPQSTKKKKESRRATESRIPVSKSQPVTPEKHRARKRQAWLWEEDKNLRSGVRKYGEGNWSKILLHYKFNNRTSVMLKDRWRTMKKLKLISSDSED
GST-AP2EAB (human), sequence (P54274 whole entry, chain 1 of 2): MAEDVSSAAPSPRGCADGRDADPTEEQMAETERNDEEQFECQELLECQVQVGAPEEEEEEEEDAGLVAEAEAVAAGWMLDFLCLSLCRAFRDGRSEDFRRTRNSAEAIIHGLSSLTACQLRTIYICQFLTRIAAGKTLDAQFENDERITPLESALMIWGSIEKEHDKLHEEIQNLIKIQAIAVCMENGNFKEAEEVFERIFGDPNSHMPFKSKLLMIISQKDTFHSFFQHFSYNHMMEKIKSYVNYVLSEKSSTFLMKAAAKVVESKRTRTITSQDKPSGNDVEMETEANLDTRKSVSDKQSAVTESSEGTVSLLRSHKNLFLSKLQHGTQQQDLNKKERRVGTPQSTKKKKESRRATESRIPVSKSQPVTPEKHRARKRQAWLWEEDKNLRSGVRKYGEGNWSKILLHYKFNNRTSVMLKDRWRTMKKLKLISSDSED
GST-AP2EAB (human), sequence (Q15554 whole entry, chain 2 of 2): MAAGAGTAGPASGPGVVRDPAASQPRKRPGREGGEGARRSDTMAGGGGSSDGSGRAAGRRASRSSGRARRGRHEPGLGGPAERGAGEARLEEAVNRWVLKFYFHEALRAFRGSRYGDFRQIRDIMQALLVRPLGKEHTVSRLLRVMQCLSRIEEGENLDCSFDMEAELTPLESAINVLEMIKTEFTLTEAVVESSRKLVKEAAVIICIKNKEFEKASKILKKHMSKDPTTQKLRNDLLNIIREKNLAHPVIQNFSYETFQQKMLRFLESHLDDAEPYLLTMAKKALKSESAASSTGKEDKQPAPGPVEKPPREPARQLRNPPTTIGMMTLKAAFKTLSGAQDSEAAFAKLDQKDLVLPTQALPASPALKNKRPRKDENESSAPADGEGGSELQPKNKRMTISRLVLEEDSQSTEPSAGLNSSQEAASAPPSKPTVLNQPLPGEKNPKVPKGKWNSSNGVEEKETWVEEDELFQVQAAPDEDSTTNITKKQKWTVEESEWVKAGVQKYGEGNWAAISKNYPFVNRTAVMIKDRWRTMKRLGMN
GST-A1-50B (human), sequence (P54274 whole entry, chain 1 of 2): as the sequence (P54274 whole entry, chain 1 of 2) above
GST-A1-50B (human), sequence (Q15554 whole entry, chain 2 of 2): as the sequence (Q15554 whole entry, chain 2 of 2) above

With “UUAGGGUUAGGGUUAGGGUUAGGGUUAGGGUUAGGGUUAGGGUUAGGGUUAGGGUUAGGGUUAGGGUUAGGG [TERRA (UUAGGG)12]”, the binding signal (% of B domain alone) with GST-A1-50B (human) was 60. Moreover, in the series with GST-AP2EAB (human), the binding signal (% binding regained at 320 nM) came out at 80.

AUAGGGAUAGGGAUAGGGAUAGGGAUAGGG (structured_RNA) [MUT3 (AUAGGG)5]: the binding result with GST-TRF1ΔA (G4-forming) and with GST-TRF2ΔB (G4-forming) was “binds” each time.

Turning to UUACCGUUACCGUUACCGUUACCGUUACCG (ssRNA) [MUT2 (UUACCG)5], the binding result with GST-TRF1ΔA (not G4-forming) and with GST-TRF2ΔB (not G4-forming) was “no binding” in each case.

For the molecule AAAGGGAAAGGGAAAGGGAAAGGGAAAGGG (structured_RNA) [MUT4 (AAAGGG)5], the binding result in the series with GST-TRF1ΔA (G4-forming) and with GST-TRF2ΔB (G4-forming) was “binds” throughout.

With UUACGGUUACGGUUACGGUUACGGUUACGG (ssRNA) [MUT1 (UUACGG)5], the binding result with GST-TRF1ΔA (not G4-forming) and with GST-TRF2ΔB (not G4-forming) was “no binding” each time.

As to UUAGGGUUAGGGUUAGGGUUAGGGUUAGGG (structured_RNA) [TERRA (UUAGGG)5], the results for the binding result with GST-TRF1ΔA (G4-forming), with GST-TRF2ΔB (G4-forming) and with GST-B R13-30A were “binds”, “binds” and “no binding”, respectively.

These data come from paper PMC9500956, “In Vitro Characterization of the Physical Interactions between the Long Noncoding RNA TERRA and the Telomeric Proteins TRF1 and TRF2”.
